Positions of bridges follow the written chain, without caps; N, C: chain ends. Non-standard residues stand in square brackets, D forms with d.
T1: synthetic PSMα1 peptide (phenol soluble modulin α1) (Staphylococcus aureus, N-terminal formylation (fMet 1))
T1 peptide: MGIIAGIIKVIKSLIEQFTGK


Assays:
[1] = biological target: T1, synthetic PSMα1 peptide (phenol soluble …); experiment: cell-based or functional assay
[2] = biological target: T1, synthetic PSMα1 peptide (phenol soluble …); experiment: BLI (BLItz), AP90 immobilized on APS tip, PSMα1 (50 µM) pre-incubated 146 h (transition region between α-sheet and β-sheet)
Description: (§1) All biolayer interferometry (BLI) experiments were performed on a BLItz™ biosensor system (ForteBio) using aminopropylsilane (APS) sensors. Sensors were hydrated in ddH₂O+22 μM ThT for 10 minutes prior to use. Designed peptides (dissolved in ddH₂O+22 μM ThT) were loaded onto the APS tip, a baseline was established in ddH₂O+22 μM ThT, and then the association of PSMα1 (prepped with DMSO+ddH₂O+22 μM ThT, as in the fibrillization assay at various pre-incubation times) was monitored over a period of three minutes. Dissociation was subsequently measured in ddH₂O+22 μM ThT, and the equilibrium dissociation constant (KD) was calculated using the BLItz™ analysis software (ForteBio).

[3] = biological target: T1, synthetic PSMα1 peptide (phenol soluble …); experiment: BLI (BLItz), AP90 (180 µM) immobilized on APS tip, PSMα1 (50 µM) in solution, samples near the end of the aggregation lag phase (α-sheet-rich, about 48 h); lower end of the range; PSMα1 samples near the end of the aggregation lag phase
Description: as §1

| Binder | inhibition of PSMα1 amyloid formation (ThT fluorescence), water + <1% DMSO, 30 µM PSMα1, 1:4 molar ratio PSMα1:AP90 [1] [%] | inhibition of PSMα1 fibril formation (ThT fluorescence), LB medium + <1% DMSO, 1:4 molar ratio PSMα1:AP90 [1] [%] | drop in binding affinity against α-sheet-rich PSMα1 (end of lag phase) [2] [fold] | Kd [3] [nM] | inhibition of PSMα1 amyloid formation (ThT fluorescence), water + <1% DMSO, 30 µM PSMα1, 1:3 molar ratio PSMα1:AP407 [1] [%] |
| --- | --- | --- | --- | --- | --- |
| Ac-RGE[dM]N[dL]S[dW]MNEYSGW[dT]M[dN]L[dK]MGR-NH2 (designed binder, SMILES CSCC[C@H](NC(=O)[C@@H](CCCCN)NC(=O)[C@H](CC(C)C)NC(=O)[C@@H](CC(N)=O)NC(=O)[C@H](CCSC)NC(=O)[C@H](NC(=O)[C@H](Cc1c[nH]c2ccccc12)NC(=O)CNC(=O)[C@H](CO)NC(=O)[C@H](Cc1ccc(O)cc1)NC(=O)[C@H](CCC(=O)O)NC(=O)[C@H](CC(N)=O)NC(=O)[C@H](CCSC)NC(=O)[C@@H](Cc1c[nH]c2ccccc12)NC(=O)[C@H](CO)NC(=O)[C@@H](CC(C)C)NC(=O)[C@H](CC(N)=O)NC(=O)[C@@H](CCSC)NC(=O)[C@H](CCC(=O)O)NC(=O)CNC(=O)[C@H](CCCNC(=N)N)NC(C)=O)[C@H](C)O)C(=O)NCC(=O)N[C@@H](CCCNC(=N)N)C(N)=O, Designed α-sheet single-turn hairpin peptide with alternating L/D residues in the strands; Made by solid phase synthesis; In the BLI assay it was loaded on an aminopropylsilane (APS) sensor tip at 180 µM; also called α1) [AP90 (Alternating Peptide #90)] | 81 | 73 | ~100 | 1000 to 1500 |  |
| Ac-RGE[dM]N[dL]C[dW]MNEYSGW[dC]M[dN]L[dK]MGR-NH2 (designed binder, disulfide 7-16; SMILES CSCC[C@H](NC(=O)[C@@H](CCCCN)NC(=O)[C@H](CC(C)C)NC(=O)[C@@H](CC(N)=O)NC(=O)[C@H](CCSC)NC(=O)[C@H]1CSSC[C@H](NC(=O)[C@@H](CC(C)C)NC(=O)[C@H](CC(N)=O)NC(=O)[C@@H](CCSC)NC(=O)[C@H](CCC(=O)O)NC(=O)CNC(=O)[C@H](CCCNC(=N)N)NC(C)=O)C(=O)N[C@H](Cc2c[nH]c3ccccc23)C(=O)N[C@@H](CCSC)C(=O)N[C@@H](CC(N)=O)C(=O)N[C@@H](CCC(=O)O)C(=O)N[C@@H](Cc2ccc(O)cc2)C(=O)N[C@@H](CO)C(=O)NCC(=O)N[C@@H](Cc2c[nH]c3ccccc23)C(=O)N1)C(=O)NCC(=O)N[C@@H](CCCNC(=N)N)C(N)=O) [AP407] |  |  |  |  | 69 |
